{"source": "patent US8785391B2", "about": "“Compound and method for treatment of alzheimer's disease and familial dementia” (Alphabeta AB, priority 2010, dated 2014)", "assay_type_in_all_cases": "biochemical", "key": {"Aβ1-40 [1]": {"molecular_target": "T1, Aβ1-40 (Homo sapiens, UniProt P05067)", "T1 construct": "made in house; host or cells: E. coli", "T1 sequence (P05067 672-711)": "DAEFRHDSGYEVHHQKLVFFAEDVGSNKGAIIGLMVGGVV", "experiment": "Thioflavin T fluorescence of Aβ1-40 aggregation (Example 3)", "settings": "25 μM Aβ1-40, Aβ/Bri2(90-236) molar ratios 1:1, 2:1, 10:1, 37° C., pH 7.0, 24 h period studied", "method": "25 μM of Aβ1-40 (SEQ ID NO: 11) was incubated with or without recombinant Bri2(90-236) (SEQ ID NO: 2) in 20 mM phosphate buffer, pH 7.0 at 37° C. for 48 h, with 200 rpm agitation, at Aβ/Bri2(90-236) molar ratios of 1:1, 2:1, or 10:1. Aβ1-40 was dissolved in 100% DMSO to 250 μM stock solution, which was diluted to working concentrations. For Thioflavin T (ThT) fluorescence measurements, 10 μl aliquots were removed at different time points, 10 μM ThT (Aldrich) added, and fluorescence was measured with a […] fluorescence plate reader (GE Healthcare), emission wavelength is 480 nm, excitation wavelength 440 nm. Measurements of ThT were done in duplicates."}, "Aβ1-40 [2]": {"molecular_target": "T1, Aβ1-40", "experiment": "SDS-PAGE of supernatants, soluble Aβ1-40", "settings": "co-incubation with 25 μM Aβ1-40, 37° C., 3 weeks incubation, centrifugation at 3300 g", "method": "(§1) […] Aβ1-40 was dissolved in 100% DMSO to 250 μM stock solution, which was diluted to working concentrations. For Thioflavin T (ThT) fluorescence measurements, 10 μl aliquots were removed at different time points, 10 μM ThT (Aldrich) added, and fluorescence was measured with a […] fluorescence plate reader (GE Healthcare), emission wavelength is 480 nm, excitation wavelength 440 nm. Measurements of ThT were done in duplicates. For analysis of soluble Aβ1-40 and ultrastructure of Aβ aggregates, aliquots were removed and centrifuged at 3300 g for 9 min. The supernatant was analyzed by SDS-PAGE and pellets were resuspended in 200 μl distilled water, 2 μl of the resuspension was added onto 200 mesh copper electron microscopy grids, stained with 2% uranyl acetate for 30 s, then left to dry at 20° C. A Hitachi H 7100 microscope operated at 75 kV was used for examination and photographing."}, "Aβ1-40 [3]": {"molecular_target": "T1, Aβ1-40", "experiment": "Electron microscopy of Aβ1-40 pellets", "settings": "co-incubation with Aβ1-40, 1:1 molar ratio, 5 days", "method": "as §1"}, "Aβ1-40 [4]": {"molecular_target": "T1, Aβ1-40", "text": "(§2) Aβ1-40 (SEQ ID NO: 11) and Aβ1-42 (SEQ ID NO: 12) were expressed in E. coli from synthetic genes and purified in batch format using ion exchange and size exclusion steps as described in Walsh et al., FEBS J. 2009, 276, 1266-1281, which results in highly pure monomeric peptide. Purified peptide was divided into 20-30 identical aliquots and frozen. Monomer was then isolated by gel filtration of an aliquot of purified peptide just prior to setting up each of the experiments listed below to remove traces of aggregate formed during freezing and thawing and to exchange buffer to the one used in the respective experiment. Monomer was collected in low-bind Ep-tubes ([…]) on ice, and the concentration was determined by absorbance or amino acid analysis after acid hydrolysis. The monomer was used as is or diluted to the desired concentration for the respective experiment. Bri2(90-236) (SEQ ID NO: 2) was expressed and purified as described in Example 1. Aggregation kinetics were studied by recording the Thioflavin T (ThT) fluorescence intensity as a function of time in a plate reader (FluoStar Omega from BMG Labtech, Offenberg, Germany). The fluorescence was recorded using bottom optics in half-area 96-well PEG-coated black polystyrene plates with clear bottom (Corning 3881) using 440 nm excitation filter and 480 nm emission filter. Aβ monomer was isolated by gel filtration as above in 20 mM Na-phosphate, 200 μM EDTA, 0.02% NaN3 (at pH 7.4 in the case of Aβ1-40 and at pH 8.0 for Aβ1-42) and diluted to 6 or 8 μM in the case of Aβ1-40 and 3 μM in the case of Aβ1-42 in the same buffer and supplemented with 20 μM ThT from a 2 mM stock. To each well in the 96-well plate was first added either 10 μl buffer (20 mM Tris/HCl pH 7.4) or 10 μl of Bri2(90-236) protein or control protein at ten times the desired final concentration in 20 mM Tris/HCl pH 7.4. To each well was then added 90 μl of the ice-cold Aβ monomer solution, and the plate was immediately placed in the plate reader at 37° C., with fluorescence read every 6 minutes with continuous shaking at 100 rpm between readings. Aβ1-40 was studied alone or with Bri2(90-236) at a concentration ranging from 60 nM to 6 μM. Aβ1-42 was studied alone or with Bri2(90-236) at a concentration ranging from 20 nM to 6 μM."}, "Aβ1-42": {"molecular_target": "T2, Aβ1-42 (Homo sapiens, UniProt P05067)", "T2 construct": "made in house; host or cells: E. coli", "T2 sequence (P05067 672-713)": "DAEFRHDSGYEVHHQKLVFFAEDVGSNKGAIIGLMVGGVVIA", "experiment": "ThT aggregation kinetics of Aβ1-42 (Example 4)", "text": "as §2, with “Aβ1-40 was studied alone or with Bri2(90-236) at a concentration ranging from 60 nM to 6 μM. Aβ1-42 was studied alone or with Bri2(90-236) at a concentration ranging from 20 nM to 6 μM.” left out"}}, "note": "Like-named read-outs stand apart in the source and are kept apart here."}
{"molecule": "Bri2(90-236): recombinant protein of residues 90-236 of human Bri2 (SEQ ID NO: 2), encompassing the Brichos domain, expressed in E. coli (protein, listed as Homo sapiens) GIKYIKDDVILNEPSADAPAALYQTIEENIKIFEEEEVEFISVPVPEFADSDPANIVHDFNKKLTAYLDLNLDKCYVIPLNTSIVMPPRNLLELLINIKAGTYLPQSYLIHEHMVITDRIENIDHLGFFIYRLCHDKETYKLQRRET", "values": [{"measurement": "ThT positive aggregates of Aβ1-40", "setting": "Aβ1-40 [1]", "value": "no ThT positive aggregates were found"}, {"measurement": "Aβ1-40 in solution (SDS-PAGE of supernatants)", "setting": "Aβ1-40 [2]", "value": "staying in solution"}, {"measurement": "amount of Aβ1-40 amyloid-like fibrils in pellets (electron microscopy)", "setting": "Aβ1-40 [3]", "value": "lower amounts of fibrils"}, {"measurement": "prolongation of half time of Aβ1-40 aggregation", "setting": "Aβ1-40 [4]; 170 nM Bri2(90-236), relative to 6 μM Aβ1-40 alone", "value": "approximately 4.5 times"}, {"measurement": "lag time of Aβ1-40 aggregation", "setting": "Aβ1-40 [4]; 0.01 or 0.03 molar equivalents of Bri2(90-236), far below equimolar", "value": "increases extensively"}, {"measurement": "lag time of Aβ1-40 aggregation", "setting": "Aβ1-40 [4]; above a molar ratio of 0.1 (1 Bri2(90-236) per 10 Aβ1-40 molecules)", "value": "exceeds one week"}, {"measurement": "elongation rate of Aβ1-40 aggregation", "setting": "Aβ1-40 [4]; in the presence of Bri2(90-236)", "value": "largely unaffected"}, {"measurement": "lag time of Aβ1-42 aggregation", "setting": "Aβ1-42; 3 μM Aβ1-42, molar ratio of 0.1 (1 Bri2(90-236) per 10 Aβ1-42), compared to the undisturbed case", "value": "doubled"}, {"measurement": "half time of Aβ1-42 aggregation", "setting": "Aβ1-42; 3 μM Aβ1-42, molar ratio of 0.1, compared to the undisturbed case", "value": "doubled"}]}
